Reference: patent US20130109581A1, “POSITIVELY CHARGED SPECIES AS BINDING REAGENTS IN THE SEPARATION OF PROTEIN AGGREGATES FROM MONOMERS” (priority 2009, published 2013)

Target: Abeta 1-40 monomer (UniProt P05067)
Experiment: MPA bead capture, Abeta 1-40 read-out of the CSF sample (noise)

Substance	average RLU (40)
AAAKAA (peptide)	134 RLU
AAKKAA (peptide)	147 RLU
AAKKKA (peptide)	159 RLU
AKKKKA (peptide)	156 RLU
AKKKKK (peptide)	176 RLU
ANFFAHSS (peptide)	543 RLU
DFKLNFKF (peptide)	260 RLU
